According to paper PMC7506556, “Structure and function of bacteriophage CBA120 ORF211 (TSP2), the determinant of phage specificity towards E. coli O157:H7” (Scientific Reports, 2020):

B1: D506A:D571A TSP2 (enzyme, UniProt G3M190 1-921, looked up)
chain: MTRNVEELFGGVITAPHQIPFTYKSNVGGETFLSLPFYPVTGVVTINGGMQVPLDNFEIEGNTLNLGRALSKGDVVYCLFDKILSPEDTAKGIRIYKFQAVGGETEFTPDFTSYGVQSLYIGGEYKTPEIEYSYDSTTGKVSLQTALSAGVWVVAEMSVKQPNISPAFDRSIQEIARSANVKDSEVIVSTDTISLLDGKKVVYDIATQTSYGLPTIPDGSVISSVSAGKLNYNPGDVQVDLLPLEDSFINVINTLGRNDGAKYIGECHSVADLRNTEPTMDGQRIILKQHTAGTLLGGGVFRALIDGTGKTDNNGTVIKTVGGAAWLRVNADRVNPFMFGALGGSNDDTIPVQSCVDSGKATQLTDAHYVSNIQLKYNTSSIYGSGLHYSRLHQLPSATGNCITIKDTCSLIVLDAFGVYGTGAQQGTSFTAGTTGIYVETPSGLSADYPFHTTADPRRDLCISKVHIAGFDEYGLNIDSGNFSVTTDSLLVNHINQVGVRCATTAWTWTNIQVNTCGKQCLVLDGCGNGRIIGGKFIWANWQPYGTVGQFPGITINNSQNMVINGIEVQACGGNGIEISESYSISMNGLNTNRNGINANNTFYNIVFNKSDAVINGFVGLNYAANSGSGANSSAGNFQFLSNDCSVTINGVVETGYMGINFIGDNNIINPTNSDLSINGLVNYSKTGLQTMNETPTFDGVSTTPVYVSVPSSVGQVNGLRLSQANKDKLLYSRTAGPEGITMAAVIVPTISGAEVFNFMAIGSGFSDTSNSLHLQLVIDASGKQTIALLLGGDGTTQILSGDLPNDLKLQSGVPYHIAIGAKPGYFWWSILNIQTGKRIRRSFRGAYLAVPFNSIFGLTSSLTFFSDSNAGGDACSGVGAKVYVGMFSSENDYVASRYYNLINPVDPTKLISYRILDSSI
notes: Made by Q5 site-directed mutagenesis of the TSP2 plasmid; also called TSP2 D506A:D571A double mutant; source: E. coli BL21(DE3), purified similar to wild type TSPs
B2: D506N:D571N TSP2 (enzyme, UniProt G3M190 1-921, looked up)
chain: MTRNVEELFGGVITAPHQIPFTYKSNVGGETFLSLPFYPVTGVVTINGGMQVPLDNFEIEGNTLNLGRALSKGDVVYCLFDKILSPEDTAKGIRIYKFQAVGGETEFTPDFTSYGVQSLYIGGEYKTPEIEYSYDSTTGKVSLQTALSAGVWVVAEMSVKQPNISPAFDRSIQEIARSANVKDSEVIVSTDTISLLDGKKVVYDIATQTSYGLPTIPDGSVISSVSAGKLNYNPGDVQVDLLPLEDSFINVINTLGRNDGAKYIGECHSVADLRNTEPTMDGQRIILKQHTAGTLLGGGVFRALIDGTGKTDNNGTVIKTVGGAAWLRVNADRVNPFMFGALGGSNDDTIPVQSCVDSGKATQLTDAHYVSNIQLKYNTSSIYGSGLHYSRLHQLPSATGNCITIKDTCSLIVLDAFGVYGTGAQQGTSFTAGTTGIYVETPSGLSADYPFHTTADPRRDLCISKVHIAGFDEYGLNIDSGNFSVTTDSLLVNHINQVGVRCATTNWTWTNIQVNTCGKQCLVLDGCGNGRIIGGKFIWANWQPYGTVGQFPGITINNSQNMVINGIEVQNCGGNGIEISESYSISMNGLNTNRNGINANNTFYNIVFNKSDAVINGFVGLNYAANSGSGANSSAGNFQFLSNDCSVTINGVVETGYMGINFIGDNNIINPTNSDLSINGLVNYSKTGLQTMNETPTFDGVSTTPVYVSVPSSVGQVNGLRLSQANKDKLLYSRTAGPEGITMAAVIVPTISGAEVFNFMAIGSGFSDTSNSLHLQLVIDASGKQTIALLLGGDGTTQILSGDLPNDLKLQSGVPYHIAIGAKPGYFWWSILNIQTGKRIRRSFRGAYLAVPFNSIFGLTSSLTFFSDSNAGGDACSGVGAKVYVGMFSSENDYVASRYYNLINPVDPTKLISYRILDSSI
notes: Made by Q5 site-directed mutagenesis of the TSP2 plasmid; also called TSP2 D506N:D571N double mutant; TSP2 asparagine double mutant; source: E. coli BL21(DE3), purified similar to wild type TSPs
B3: D506N:D571A TSP2 (enzyme, UniProt G3M190 1-921, looked up)
chain: MTRNVEELFGGVITAPHQIPFTYKSNVGGETFLSLPFYPVTGVVTINGGMQVPLDNFEIEGNTLNLGRALSKGDVVYCLFDKILSPEDTAKGIRIYKFQAVGGETEFTPDFTSYGVQSLYIGGEYKTPEIEYSYDSTTGKVSLQTALSAGVWVVAEMSVKQPNISPAFDRSIQEIARSANVKDSEVIVSTDTISLLDGKKVVYDIATQTSYGLPTIPDGSVISSVSAGKLNYNPGDVQVDLLPLEDSFINVINTLGRNDGAKYIGECHSVADLRNTEPTMDGQRIILKQHTAGTLLGGGVFRALIDGTGKTDNNGTVIKTVGGAAWLRVNADRVNPFMFGALGGSNDDTIPVQSCVDSGKATQLTDAHYVSNIQLKYNTSSIYGSGLHYSRLHQLPSATGNCITIKDTCSLIVLDAFGVYGTGAQQGTSFTAGTTGIYVETPSGLSADYPFHTTADPRRDLCISKVHIAGFDEYGLNIDSGNFSVTTDSLLVNHINQVGVRCATTNWTWTNIQVNTCGKQCLVLDGCGNGRIIGGKFIWANWQPYGTVGQFPGITINNSQNMVINGIEVQACGGNGIEISESYSISMNGLNTNRNGINANNTFYNIVFNKSDAVINGFVGLNYAANSGSGANSSAGNFQFLSNDCSVTINGVVETGYMGINFIGDNNIINPTNSDLSINGLVNYSKTGLQTMNETPTFDGVSTTPVYVSVPSSVGQVNGLRLSQANKDKLLYSRTAGPEGITMAAVIVPTISGAEVFNFMAIGSGFSDTSNSLHLQLVIDASGKQTIALLLGGDGTTQILSGDLPNDLKLQSGVPYHIAIGAKPGYFWWSILNIQTGKRIRRSFRGAYLAVPFNSIFGLTSSLTFFSDSNAGGDACSGVGAKVYVGMFSSENDYVASRYYNLINPVDPTKLISYRILDSSI
notes: Made by Q5 site-directed mutagenesis of the TSP2 plasmid; source: E. coli BL21(DE3), purified similar to wild type TSPs
B4: D506N:E568A:D571N TSP2 (enzyme, UniProt G3M190 1-921, looked up)
chain: MTRNVEELFGGVITAPHQIPFTYKSNVGGETFLSLPFYPVTGVVTINGGMQVPLDNFEIEGNTLNLGRALSKGDVVYCLFDKILSPEDTAKGIRIYKFQAVGGETEFTPDFTSYGVQSLYIGGEYKTPEIEYSYDSTTGKVSLQTALSAGVWVVAEMSVKQPNISPAFDRSIQEIARSANVKDSEVIVSTDTISLLDGKKVVYDIATQTSYGLPTIPDGSVISSVSAGKLNYNPGDVQVDLLPLEDSFINVINTLGRNDGAKYIGECHSVADLRNTEPTMDGQRIILKQHTAGTLLGGGVFRALIDGTGKTDNNGTVIKTVGGAAWLRVNADRVNPFMFGALGGSNDDTIPVQSCVDSGKATQLTDAHYVSNIQLKYNTSSIYGSGLHYSRLHQLPSATGNCITIKDTCSLIVLDAFGVYGTGAQQGTSFTAGTTGIYVETPSGLSADYPFHTTADPRRDLCISKVHIAGFDEYGLNIDSGNFSVTTDSLLVNHINQVGVRCATTNWTWTNIQVNTCGKQCLVLDGCGNGRIIGGKFIWANWQPYGTVGQFPGITINNSQNMVINGIAVQNCGGNGIEISESYSISMNGLNTNRNGINANNTFYNIVFNKSDAVINGFVGLNYAANSGSGANSSAGNFQFLSNDCSVTINGVVETGYMGINFIGDNNIINPTNSDLSINGLVNYSKTGLQTMNETPTFDGVSTTPVYVSVPSSVGQVNGLRLSQANKDKLLYSRTAGPEGITMAAVIVPTISGAEVFNFMAIGSGFSDTSNSLHLQLVIDASGKQTIALLLGGDGTTQILSGDLPNDLKLQSGVPYHIAIGAKPGYFWWSILNIQTGKRIRRSFRGAYLAVPFNSIFGLTSSLTFFSDSNAGGDACSGVGAKVYVGMFSSENDYVASRYYNLINPVDPTKLISYRILDSSI
notes: as for B3
B5: D506A:D571N TSP2 (enzyme, UniProt G3M190 1-921, looked up)
chain: MTRNVEELFGGVITAPHQIPFTYKSNVGGETFLSLPFYPVTGVVTINGGMQVPLDNFEIEGNTLNLGRALSKGDVVYCLFDKILSPEDTAKGIRIYKFQAVGGETEFTPDFTSYGVQSLYIGGEYKTPEIEYSYDSTTGKVSLQTALSAGVWVVAEMSVKQPNISPAFDRSIQEIARSANVKDSEVIVSTDTISLLDGKKVVYDIATQTSYGLPTIPDGSVISSVSAGKLNYNPGDVQVDLLPLEDSFINVINTLGRNDGAKYIGECHSVADLRNTEPTMDGQRIILKQHTAGTLLGGGVFRALIDGTGKTDNNGTVIKTVGGAAWLRVNADRVNPFMFGALGGSNDDTIPVQSCVDSGKATQLTDAHYVSNIQLKYNTSSIYGSGLHYSRLHQLPSATGNCITIKDTCSLIVLDAFGVYGTGAQQGTSFTAGTTGIYVETPSGLSADYPFHTTADPRRDLCISKVHIAGFDEYGLNIDSGNFSVTTDSLLVNHINQVGVRCATTAWTWTNIQVNTCGKQCLVLDGCGNGRIIGGKFIWANWQPYGTVGQFPGITINNSQNMVINGIEVQNCGGNGIEISESYSISMNGLNTNRNGINANNTFYNIVFNKSDAVINGFVGLNYAANSGSGANSSAGNFQFLSNDCSVTINGVVETGYMGINFIGDNNIINPTNSDLSINGLVNYSKTGLQTMNETPTFDGVSTTPVYVSVPSSVGQVNGLRLSQANKDKLLYSRTAGPEGITMAAVIVPTISGAEVFNFMAIGSGFSDTSNSLHLQLVIDASGKQTIALLLGGDGTTQILSGDLPNDLKLQSGVPYHIAIGAKPGYFWWSILNIQTGKRIRRSFRGAYLAVPFNSIFGLTSSLTFFSDSNAGGDACSGVGAKVYVGMFSSENDYVASRYYNLINPVDPTKLISYRILDSSI
notes: as for B3
B6: D506N:E568Q:D571N TSP2 (enzyme, UniProt G3M190 1-921, looked up)
chain: MTRNVEELFGGVITAPHQIPFTYKSNVGGETFLSLPFYPVTGVVTINGGMQVPLDNFEIEGNTLNLGRALSKGDVVYCLFDKILSPEDTAKGIRIYKFQAVGGETEFTPDFTSYGVQSLYIGGEYKTPEIEYSYDSTTGKVSLQTALSAGVWVVAEMSVKQPNISPAFDRSIQEIARSANVKDSEVIVSTDTISLLDGKKVVYDIATQTSYGLPTIPDGSVISSVSAGKLNYNPGDVQVDLLPLEDSFINVINTLGRNDGAKYIGECHSVADLRNTEPTMDGQRIILKQHTAGTLLGGGVFRALIDGTGKTDNNGTVIKTVGGAAWLRVNADRVNPFMFGALGGSNDDTIPVQSCVDSGKATQLTDAHYVSNIQLKYNTSSIYGSGLHYSRLHQLPSATGNCITIKDTCSLIVLDAFGVYGTGAQQGTSFTAGTTGIYVETPSGLSADYPFHTTADPRRDLCISKVHIAGFDEYGLNIDSGNFSVTTDSLLVNHINQVGVRCATTNWTWTNIQVNTCGKQCLVLDGCGNGRIIGGKFIWANWQPYGTVGQFPGITINNSQNMVINGIQVQNCGGNGIEISESYSISMNGLNTNRNGINANNTFYNIVFNKSDAVINGFVGLNYAANSGSGANSSAGNFQFLSNDCSVTINGVVETGYMGINFIGDNNIINPTNSDLSINGLVNYSKTGLQTMNETPTFDGVSTTPVYVSVPSSVGQVNGLRLSQANKDKLLYSRTAGPEGITMAAVIVPTISGAEVFNFMAIGSGFSDTSNSLHLQLVIDASGKQTIALLLGGDGTTQILSGDLPNDLKLQSGVPYHIAIGAKPGYFWWSILNIQTGKRIRRSFRGAYLAVPFNSIFGLTSSLTFFSDSNAGGDACSGVGAKVYVGMFSSENDYVASRYYNLINPVDPTKLISYRILDSSI
notes: as for B3

Biological target: the molecule itself
Assay: not stated; purified TSP2 site-directed mutants; how the trimeric state was shown is not told

Protein | stoichiometry N
B1 | 3
B2 | 3
B3 | 3
B4 | 3
B5 | 3
B6 | 3
